Consider 167 variants from the RNAGym collection of RNA variant scans (doi:10.7554/elife.80360).

The chains are these.
B1: Hairpin Ribozyme (parent)
chain: GUCCUCUUUCACGUGCGCGUGAAAGAGAGAAGUGAACCAGAGAAACACACGUUGUGGUAUAUUACCUGGUA

This series covers variants of B1. The series can be described thus: self-cleavage, relative activity (ratio to wild type); higher = more cleavage; co-transcriptional.
On to U9C A43U, for which the self-cleavage was determined as 0.298.

On to U8C U63C, for which the self-cleavage was determined as 0.132.

For the variant U8C C12U, the self-cleavage is 0.566.

As for U8C C12A, the self-cleavage amounted to 0.164.

U8G A36G: the self-cleavage was determined as 0.76.

On to U8C C46G, for which the self-cleavage came out at 0.188.

Turning to C10A A35C, the self-cleavage is 0.846.

In the case of U9G C16A, the self-cleavage was determined as 0.668.

U9G C16U: the self-cleavage was determined as 0.857.

On to U9G G19A, for which the self-cleavage stood at 0.548.

Take U9A A36U: the self-cleavage turned out to be 0.283.

Regarding U9G A22U, the self-cleavage is 0.564.

Turning to U9G A22C, the self-cleavage turned out to be 0.677.

For C10A A22U, the self-cleavage was found to be 0.632.

As to C10A A22G, the self-cleavage was found to be 0.607.

Take U9G A26C: the self-cleavage was determined as 0.418.

U9G A26G: the self-cleavage is 0.386.

Regarding C10A A24C, the self-cleavage came out at 0.598.

With U9C G13A, the self-cleavage is 0.531.

Consider U9C G13C, for which the self-cleavage amounted to 0.447.

As for U9G U52C, the self-cleavage came out at 0.546.

For U9G U52G, the self-cleavage amounted to 0.492.

Turning to U9G U52A, the self-cleavage is 0.705.

As to U9A A49G, the self-cleavage amounted to 0.395.

As for U9A G42A, the self-cleavage is 0.132.

Regarding U9A U33C, the self-cleavage is 0.177.

In the case of U9A U33A, the self-cleavage turned out to be 0.0178.

In the case of U9A U33G, the self-cleavage stood at 0.105.

For the variant U9C A31C, the self-cleavage came to 0.184.

Regarding U9C A31G, the self-cleavage was determined as 0.592.

Take U9C A31U: the self-cleavage is 0.153.

As for U8G G57U, the self-cleavage was determined as 0.19.

Regarding U8G U33A, the self-cleavage is 0.136.

Consider U8G U33C, for which the self-cleavage amounted to 0.117.

Turning to U8C G69C, the self-cleavage was 0.164.

For the variant U9A U52A, the self-cleavage came out at 0.877.

As to U9A U52C, the self-cleavage was determined as 0.6.

Take U9A A30G: the self-cleavage worked out at 0.148.

For U9A A30C, the self-cleavage was determined as 0.172.

With U8G A45U, the self-cleavage came to 0.118.

As to U9A A31G, the self-cleavage amounted to 0.313.

With U9C G51U, the self-cleavage is 0.463.

Take U9C G29A: the self-cleavage stood at 0.118.

On to U9C G15C, for which the self-cleavage is 0.977.

Take U9C G15A: the self-cleavage is 0.76.

In the case of U8G G15U, the self-cleavage amounted to 0.656.

Turning to U9C A61G, the self-cleavage came to 0.348.

For U9C C48A, the self-cleavage was 0.0859.

With U9A G69U, the self-cleavage is 0.245.

Take U9A G69A: the self-cleavage is 0.296.

As for U9A G69C, the self-cleavage worked out at 0.274.

Take U9C A23U: the self-cleavage was determined as 0.528.

On to U9A C50U, for which the self-cleavage came to 0.22.

On to U9G A45G, for which the self-cleavage amounted to 0.205.

For U9G A45U, the self-cleavage turned out to be 0.0827.

Take U8C U58G: the self-cleavage turned out to be 0.327.

U8G G27U: the self-cleavage amounted to 0.289.

U9C A35U: the self-cleavage was determined as 0.708.

Turning to U9G, the self-cleavage stood at 0.701.

For U9C, the self-cleavage worked out at 0.819.

Take U9A: the self-cleavage was determined as 0.691.

C10A A31C: the self-cleavage turned out to be 0.09.

Take U9G C38G: the self-cleavage turned out to be 0.175.

On to U8G G32A, for which the self-cleavage worked out at 0.0907.

Consider U9G A35C, for which the self-cleavage was 0.637.

In the case of U9G U70G, the self-cleavage was 0.539.

In the case of U9A U60A, the self-cleavage stood at 0.483.

Regarding U9A G25U, the self-cleavage turned out to be 0.285.

Take U8C G68U: the self-cleavage was 0.154.

Take U8C G68A: the self-cleavage is 0.186.

For the variant U8C G56A, the self-cleavage amounted to 0.153.

Take U8G A23U: the self-cleavage came to 0.738.

With U9C C50A, the self-cleavage was 0.215.

For U9C A36U, the self-cleavage amounted to 0.444.

With U9G A64C, the self-cleavage stood at 0.164.

Regarding U9G A64G, the self-cleavage came to 0.478.

As to U9G G68U, the self-cleavage came to 0.189.

As for U9G A24U, the self-cleavage came out at 0.483.

C10A A45C: the self-cleavage was determined as 0.111.

Turning to C10A A45U, the self-cleavage turned out to be 0.121.

For the variant U9G C18U, the self-cleavage came to 0.793.

For U8G U60G, the self-cleavage turned out to be 0.51.

For the variant U9C G68A, the self-cleavage is 0.344.

Regarding U9C A59G, the self-cleavage came to 0.0975.

For U9A G68C, the self-cleavage came to 0.165.

For U9A G68U, the self-cleavage turned out to be 0.159.

With U9A G34C, the self-cleavage turned out to be 1.08.

As for U9A A23G, the self-cleavage was determined as 0.559.

U8G C50G: the self-cleavage was 0.125.

For the variant U8G C50A, the self-cleavage stood at 0.227.

U9C G34A: the self-cleavage was 0.812.

In the case of U9C G34C, the self-cleavage amounted to 1.3.

On to U9C G21U, for which the self-cleavage was 0.695.

On to U9G C65U, for which the self-cleavage came to 0.122.

Take U9A C48G: the self-cleavage was 0.127.

For U9A C48U, the self-cleavage was 0.134.

Consider U9G C37G, for which the self-cleavage is 0.229.

In the case of U9G C37A, the self-cleavage was 0.117.

As to U9C U58A, the self-cleavage amounted to 0.559.

Regarding U8C C48U, the self-cleavage stood at 0.272.

On to U8C C48G, for which the self-cleavage stood at 0.155.

For the variant U9C U60C, the self-cleavage was 0.981.

Consider C10A A41C, for which the self-cleavage was found to be 0.752.

For the variant C10A A41U, the self-cleavage came out at 1.04.

For the variant U9C G57A, the self-cleavage is 0.167.

With U9G G57C, the self-cleavage came to 0.232.

As to U9A G56A, the self-cleavage was 0.158.

On to U9A A64U, for which the self-cleavage was found to be 0.131.

As to U8G A49C, the self-cleavage worked out at 0.108.

For U9C A22U, the self-cleavage worked out at 0.799.

For the variant U9G G13C, the self-cleavage is 0.528.

U9C C16U: the self-cleavage stood at 1.02.

For U9C C16G, the self-cleavage is 0.63.

For the variant U9C C66A, the self-cleavage is 0.248.

As to U9C C66U, the self-cleavage is 0.513.

U8C U67A: the self-cleavage worked out at 0.161.

Turning to U9A C12G, the self-cleavage stood at 0.512.

For the variant U9A C12A, the self-cleavage worked out at 0.377.

Turning to U8C C38A, the self-cleavage turned out to be 0.215.

For the variant U8G G68C, the self-cleavage is 0.183.

As for U9G A61U, the self-cleavage came out at 0.211.

Take U8G U58G: the self-cleavage came out at 0.635.

As to U8G U58A, the self-cleavage was determined as 0.665.

U8G A31C: the self-cleavage was determined as 0.13.

Consider C10A A44G, for which the self-cleavage was 0.178.

As for U9G G51U, the self-cleavage came out at 0.814.

In the case of U8G U52C, the self-cleavage was 0.617.

As to U9A G27U, the self-cleavage amounted to 0.326.

Turning to U9A G27C, the self-cleavage turned out to be 0.239.

For U8C U70C, the self-cleavage is 0.651.

For U8C U70A, the self-cleavage was determined as 0.631.

In the case of U8C U20C, the self-cleavage worked out at 0.184.

As for U8C G42C, the self-cleavage is 0.187.

Take U8C G40C: the self-cleavage came out at 0.0998.

Turning to U9C A45G, the self-cleavage came to 0.0278.

Regarding U9G G69U, the self-cleavage was found to be 0.111.

Consider U9G G69A, for which the self-cleavage was determined as 0.223.

In the case of U9A G29U, the self-cleavage came to 0.144.

As for U9A G29A, the self-cleavage came to 0.0709.

For U9A G29C, the self-cleavage amounted to 0.154.

For the variant U8G U53C, the self-cleavage was 0.954.

On to U8G U53A, for which the self-cleavage turned out to be 0.567.

Consider U8G C12G, for which the self-cleavage is 0.146.

On to U9C A49U, for which the self-cleavage amounted to 0.0445.

U9C U62A: the self-cleavage was 0.238.

As for U8G G13C, the self-cleavage is 0.519.

For the variant U8G G13A, the self-cleavage was determined as 0.618.

Take U8G U9C: the self-cleavage came to 0.595.

For the variant U8G U9G, the self-cleavage was determined as 0.82.

Consider U9C A28U, for which the self-cleavage was found to be 0.571.

Regarding U9C A28G, the self-cleavage is 1.33.

On to U9G G15A, for which the self-cleavage was found to be 0.646.

Regarding U9A A61C, the self-cleavage is 0.144.

U9C U63G: the self-cleavage worked out at 0.169.

Regarding U8G U63A, the self-cleavage turned out to be 0.245.

For U9C C38A, the self-cleavage turned out to be 0.225.

U9C C38U: the self-cleavage amounted to 0.338.

On to U9A A71C, for which the self-cleavage worked out at 1.01.

For the variant U9A A43U, the self-cleavage amounted to 0.105.

For the variant U9C C46U, the self-cleavage was 0.0512.

U8G U20C: the self-cleavage was 0.425.

For U8C A36C, the self-cleavage came to 0.671.

For U8C A36U, the self-cleavage stood at 0.393.

On to U9A G57C, for which the self-cleavage was 0.185.

For U9G U67A, the self-cleavage worked out at 0.0846.

On to U8C U33A, for which the self-cleavage was 0.216.

On to U9A U62C, for which the self-cleavage is 0.249.
